Reference: PMC3777854 (Journal of clinical pharmacology, 2013)
“Also recorded” adds a separate entry of the source.

Key:
CYP3A [1] = experiment: Effect of rifampin on brentuximab vedotin; format: in vivo, human; conditions: brentuximab vedotin 1.8 mg/kg alone, geometric mean (%CV), n=11
[2] = tested on: antitherapeutic antibodies (ATA); experiment: Antitherapeutic antibodies; format: in vivo, human
[3] = tested on: relapsed/refractory systemic ALCL; conditions: 1.8 mg/kg IV every 3 weeks for up to 16 cycles; cited from earlier work
CYP3A [4] = experiment: Effect of ketoconazole on brentuximab vedotin; format: in vivo, human; conditions: geometric mean (%CV); for ADC Cmax: serum, n=16
[5] = Safety assessments: adverse events and laboratory abnormalities; format: in vivo, human
CYP3A [6] = experiment: Effect of brentuximab vedotin on midazolam PK

## brentuximab vedotin: ADC directed to human CD30: MMAE conjugated to the anti-CD30 antibody cAC10 through a protease-cleavable linker
CYP3A [1]
  ADC t1/2: 5.87 (66) d
CYP3A [1]; serum
  ADC Cmax: 36.74 (34) μg/mL
[2]; PK-evaluable patients in the ketoconazole arm
  patients with at least 1 positive postbaseline ATA result: 8 of 16
[2]; PK-evaluable patients in the rifampin arm
  patients with at least 1 positive postbaseline ATA result: Five of 14
[2]; all patients
  patients free of confirmed ATA at baseline but positive at one or both postbaseline timepoints: Eighteen
[2]; with one exception (one patient 3125 prior to second dose)
  titers of all confirmed positive ATA results: ≤ 125
[3]
  objective response rate: 86%
CYP3A [4]; brentuximab vedotin 1.2 mg/kg alone, n=11
  ADC t1/2: 5.70 (33) d
CYP3A [4]; brentuximab vedotin 1.2 mg/kg alone
  ADC Cmax: 22.57 (23) μg/mL
CYP3A [4]; brentuximab vedotin 1.2 mg/kg with ketoconazole
  ADC Cmax: 22.38 (70) μg/mL
[5]; Ket arm, both cycles (n = 19)
  Adverse events: Any event: 19 (100) n (%)
  Adverse events: Diarrhea: 6 (32) n (%)
  Adverse events: Fatigue: 8 (42) n (%)
  Adverse events: Headache: 4 (21) n (%)
  Adverse events: Nausea: 9 (47) n (%)
  Adverse events: Neutropenia: 3 (16) n (%)
  Adverse events: Pruritis: 4 (21) n (%)
  Adverse events: Pyrexia: 7 (37) n (%)
  Adverse events: Vomiting: 6 (32) n (%)
[5]; Ket arm, post-ket (N = 19)
  Adverse events: Any event: 16 (84) n (%)
  Adverse events: Diarrhea: 6 (32) n (%)
  Adverse events: Fatigue: 5 (26) n (%)
  Adverse events: Headache: 4 (21) n (%)
  Adverse events: Nausea: 5 (26) n (%)
  Adverse events: Neutropenia: 3 (16) n (%)
  Adverse events: Pruritis: 3 (16) n (%)
  Adverse events: Pyrexia: 2 (11) n (%)
  Adverse events: Vomiting: 6 (32) n (%)
[5]; Ket arm, pre-ket (N = 19)
  Adverse events: Any event: 16 (84) n (%)
  Adverse events: Diarrhea: 1 (5) n (%)
  Adverse events: Fatigue: 4 (21) n (%)
  Adverse events: Headache: 0 n (%)
  Adverse events: Nausea: 5 (26) n (%)
  Adverse events: Neutropenia: 0 n (%)
  Adverse events: Pruritis: 1 (5) n (%)
  Adverse events: Pyrexia: 6 (32) n (%)
  Adverse events: Vomiting: 3 (16) n (%)
[5]; Mid arm, both cycles (n = 16)
  Adverse events: Any event: 14 (88) n (%)
  Adverse events: Diarrhea: 3 (19) n (%)
  Adverse events: Fatigue: 3 (19) n (%)
  Adverse events: Headache: 4 (25) n (%)
  Adverse events: Nausea: 2 (13) n (%)
  Adverse events: Neutropenia: 1 (6) n (%)
  Adverse events: Pruritis: 1 (6) n (%)
  Adverse events: Pyrexia: 0 n (%)
  Adverse events: Vomiting: 2 (13) n (%)
[5]; Rif arm, Cycle 1 (N = 21)
  Adverse events: Any event: 18 (86) n (%)
  Adverse events: Diarrhea: 2 (10) n (%)
  Adverse events: Fatigue: 1 (5) n (%)
  Adverse events: Headache: 3 (14) n (%)
  Adverse events: Nausea: 6 (29) n (%)
  Adverse events: Neutropenia: 6 (29) n (%)
  Adverse events: Pruritis: 3 (14) n (%)
  Adverse events: Pyrexia: 6 (29) n (%)
  Adverse events: Vomiting: 2 (10) n (%)
[5]; Rif arm, Cycle 2 (N = 20)
  Adverse events: Any event: 17 (85) n (%)
  Adverse events: Diarrhea: 3 (15) n (%)
  Adverse events: Fatigue: 4 (20) n (%)
  Adverse events: Headache: 2 (10) n (%)
  Adverse events: Nausea: 2 (10) n (%)
  Adverse events: Neutropenia: 5 (25) n (%)
  Adverse events: Pruritis: 2 (10) n (%)
  Adverse events: Pyrexia: 0 n (%)
  Adverse events: Vomiting: 1 (5) n (%)
[5]; Rif arm, both cycles (n = 21)
  Adverse events: Any event: 20 (95) n (%)
  Adverse events: Diarrhea: 4 (19) n (%)
  Adverse events: Fatigue: 5 (24) n (%)
  Adverse events: Headache: 5 (24) n (%)
  Adverse events: Nausea: 6 (29) n (%)
  Adverse events: Neutropenia: 7 (33) n (%)
  Adverse events: Pruritis: 4 (19) n (%)
  Adverse events: Pyrexia: 6 (29) n (%)
  Adverse events: Vomiting: 2 (10 n (%)
[5]; Total, both cycles (N = 56)
  Adverse events: Any event: 53 (95) n (%)
  Adverse events: Diarrhea: 13 (23) n (%)
  Adverse events: Fatigue: 16 (29) n (%)
  Adverse events: Headache: 13 (23) n (%)
  Adverse events: Nausea: 17 (30) n (%)
  Adverse events: Neutropenia: 11 (20) n (%)
  Adverse events: Pruritis: 9 (16) n (%)
  Adverse events: Pyrexia: 13 (23) n (%)
  Adverse events: Vomiting: 10 (18) n (%)
[5]; all patients (N = 56), 2 treatment cycles
  treatment-emergent peripheral neuropathy: 18%
[5]; all patients, 5 patients
  low hemoglobin, change from Grade 1 or 2 to ≥ Grade 3: 9%
  low lymphocyte counts, change from Grade 1 or 2 to ≥ Grade 3: 9%
  low platelet counts, change from Grade 1 or 2 to ≥ Grade 3: 9%
[5]; all patients, 6 patients
  elevated ALT, change from Grade 1 or 2 to ≥ Grade 3: 11%
[5]; all patients, 7 patients
  low white blood cell count, change from Grade 1 or 2 to ≥ Grade 3: 13%
[5]; ketoconazole arm, after ketoconazole, 1 patient
  peripheral neuropathy events: 5%
[5]; ketoconazole arm, after ketoconazole, 2 patients
  elevated AST (adverse event): 11%
[5]; ketoconazole arm, before ketoconazole dosing, 4 patients
  incidence of adverse events ≥ Grade 3: 21%
[5]; ketoconazole arm, before ketoconazole, 1 patient
  elevated AST (adverse event): 5%
[5]; ketoconazole arm, before ketoconazole, 2 patients
  peripheral neuropathy events: 11%
[5]; ketoconazole arm, both before and after ketoconazole, 1 patient
  elevated ALT (adverse event): 5%
CYP3A [6]; brentuximab vedotin 1.8 mg/kg, midazolam as probe substrate
  inhibition or induction of CYP3A in humans (conclusion): neither inhibitors nor inducers of CYP3A; also recorded: neither inhibit nor induce CYP3A

## Cc1ncc2n1-c1ccc(Cl)cc1C(c1ccccc1F)=NC2 [Midazolam, midazolam]
CYP3A [6]; human, plasma, intravenous
  Tmax: 2.52 min
  half-life: 5.69 h
CYP3A [6]; human, plasma, intravenous, 1 mg
  Tmax: 3 min
CYP3A [6]; human, plasma, iv, 1 mg
  AUC(0-inf): 79 ng·h/mL
  Cmax: 73 ng/mL
  half-life: 6.4 h
